The data set in a line: yeast display, Sf9 membrane polyspecificity reagent, FACS + sequencing; frameworks hold sequencing errors. The essentials:
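Synthetic nanobody libraries on Saccharomyces cerevisiae BJ5465 were galactose-induced for 36–48 hours, stained 1 hour at 4 °C with 10% biotinylated, detergent-solubilized Sf9 membrane reagent and enriched on streptavidin microbeads. FACS then separated cells into low and high (top ~1%) gates by anti-HA (expression) and streptavidin (reagent binding) fluorescence. Genes were colony-PCR amplified, MiSeq 2 × 250 sequenced and CDR-length filtered. A clone's polyreactivity label is that of its gate of origin.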
Turning to “QVHLVESGGGLVQAGGSLRLSCAASGRIFSRNAMGWYRQAPGKERELVASITRGGSTYYADSVKGRFTISRDNAKITVYLQMNSLKPEDTAVYYCAAVFYDRGQRYNYWGQGTQVTVSS”, the “polyreactivity (PSR sort gate)” value was “high polyreactivity”.

Regarding “QVQLVESGGGLVQAGGSLRLSCAASGRTFYGNAMGWYRQAPGKERELVAAITFRTSSTYYADSVKGRFTISRDYAKNTVYLQMNSLKPDDTAVFYCAALWIYSGWRYDYWGQGTQVTVSS”, the “polyreactivity (PSR sort gate)” value is given as “high polyreactivity”.

Take “QVQLVESGGGLVQAGGSLRLSCAASGSTFDYNAMGWYRQAPGKERELVAAINSGASTYYADSVKGRFTISRDNAKNTVYLQMNSLKPEDTAVYYCAKDYPYIGDYWGQGTQVTVSS”: the “polyreactivity (PSR sort gate)” value was “low polyreactivity”.

On to “QVQLVESGGGLVQAGGSLRLSCAASGSIFGTYAMGWYRQAPGKERELVAAITTSAGSTYYADSVKGRFTISRDNAKNTVYLEMNSLKPEDTAVYYCAKYAYTSVHSWYYYWGQGTQVTVSS”, for which the “polyreactivity (PSR sort gate)” value is listed as “high polyreactivity”.

As to “QVQLVESGGGLVQAGGSLRLSCAASGFTFDYNTMGWYRQAPGKEIELVAGISRGGGSTYYADSVKGRFTISRDNAKNTVYLQMNSLKPEVTAVYYCNTVLKRQRKNEYWGQGTQVTVSS”, the “polyreactivity (PSR sort gate)” value is “high polyreactivity”.

Take “QVQLEESGGGLVQAGGSRRLSCAASGITFPGYAMGWYRQAPGKERELVAGITYRGGRTYYADSVKGRFTISRDNAKTTVYLQMTSLNTEATAVYYCNADYWSTGGSYSFDYWGQGTQVTVSS”: the “polyreactivity (PSR sort gate)” value is “low polyreactivity”.

Turning to “QVQLVESGGGLVQAGGSLRLSCAASGRTFGYYGMGWYRQAPGKEREFFAAITRSGGSTYYADSVKGRFTISRDNAKNTVYLQMNSLKPEDTAVYYCAAAHLFTRSRPYDYWGQGTQVTVSS”, the “polyreactivity (PSR sort gate)” value is recorded as “high polyreactivity”.

Turning to “QVQLVESGGGLVQAGGSLRLSCAASGSIFGYYAMGWYRQAPGKERELVASIRRGSSTNYADSVKGRFTISRDNAKHTVYLQMNSLKPEDTAVYYCNAVLLSYDGRGYSNLYDYWGQGTQVTVSS”, the “polyreactivity (PSR sort gate)” value is on record as “low polyreactivity”.

Take “QVQLVESGGGLVQAVGSLRLSCAASGRTFGTYAMGWYRQAPGKERELVAAISSGGSTYADSVKGRFTISRDNAKNTVYLQMNSLKPEDTAVYYCNNVRRKQSVLTFDYWGQGTQVTVSS”: the “polyreactivity (PSR sort gate)” value is listed as “high polyreactivity”.

As for “QVQLVESGGGLVQAGGSLRLSCAASGSTFDPNVMGWYRQAPGKERELVAAISSIGGSTYYADSVKGRFTISRDNAKNTVYLQMNSLNPQDTAVYYCAAGYPRFGYDYWGQGTQVTVSS”, the “polyreactivity (PSR sort gate)” value is on record as “high polyreactivity”.

With “QVQLVESGGGLVQAGGSLRLSCAASGFIFADYMGWYRQAPGKERELDASISSTGSSTYADSVKGRFTISRDNAKNTVYLQMNSLKPEDTAVYYCAATGVWYSWYEYASEYDYWGQGTQVTVSS”, the “polyreactivity (PSR sort gate)” value is recorded as “high polyreactivity”.

Turning to “QVQLGESGGGLVQAGGSLRLTCAASGLIFYRNARGWYRQAPGKERELVAAISKNGGNTYYADSVKGRFTISRDYAKNTVYLQMNSLKPEDTAVYYCAARELYGPFGYWGQGTQVTVSS”, the “polyreactivity (PSR sort gate)” value is “high polyreactivity”.

In the case of “QVQLVESGGGLVQAGGSLRLSCAASGRTIWYYAMGWYRQAPGNERELVASITRSGGSTYADSVQGRFPISRDNAKNTVYLQMNSLKPQDTAVYYCAVGAVVPGLRRRTYYYWGQGTQVTVSS”, the “polyreactivity (PSR sort gate)” value is given as “high polyreactivity”.

Turning to “QVQLVESGGGLVQAGGSLRLSCAASGSTFRVYDMGWYRQAPGKERELVASISYSVGSTYYADSVKGRFTISRDNAKNTVYLQMNSLKPEDTAVYYCAARPSYQPSSLARYDYWGQGTQVTVSS”, the “polyreactivity (PSR sort gate)” value was “low polyreactivity”.

For the sequence “QVQLVESGGGLVQAGGSLRLSCAASGSTFFLYAMGWYRQAPGKERELVAVITWRGGRTYYADSVKGRFTISRDNAKNTVYLQMNSMKPEDTAVYYCAAEYYWPVKYYYWGQGTQVTVSS”, the “polyreactivity (PSR sort gate)” value is on record as “high polyreactivity”.

Take “QFQLVESGGGLDQAGGSLRLSCAASGSIFWYYAMGWYRQAPGKERELVAAISISGSTYYADSVKGRFTISRDNAKNTVYLQMNSLKPEDTAVYYCAARKFFWRSNYDYWGQGTQVTVSS”: the “polyreactivity (PSR sort gate)” value is “low polyreactivity”.

As for “QVQLVESGGGFVQAGASLRLSCAASGRTCHGYAMGWYRQAPGKERDLVAAINASGGRTYYAESVKGRFTISRDNAKNTVYLLMNSLNPEDTAVYYCGVYSASFRYGLANDYWGQGTQVTVSS”, the “polyreactivity (PSR sort gate)” value is listed as “high polyreactivity”.

Take “QVQLVESGGGLVQAGGSHRLSCAASGSTFLRYAMGWYRQAPGKERELVAAITASGGSTYYADSVKGRFTISRDNAKNTVYLQMNCLKAEDTAVYYCAADGRFIGKNSHDLWIYGYYYWGQGTQVTVSS”: the “polyreactivity (PSR sort gate)” value is “low polyreactivity”.

Take “QVQHVESGGGLVQAGGSLRLSCAASGRTFFSYAMGLYRHAPGKERELVAAITYSGGRTYYADSVKGRFTISRDNAKNTVYLQMNSLKPEDTAVYYCAATHYREKIDYWGQGTQVTVSS”: the “polyreactivity (PSR sort gate)” value was “low polyreactivity”.

As to “QVQLVESGGGLVQAGGSLRLSCAASGSTLNSYVMGWYRQAPGKERELVATIRSGSSTNYADSVKGRFTISRDNAKNTVYLQMNSLKPEDTAVYYCAADAYSLCYDSWGQGTQVTVSS”, the “polyreactivity (PSR sort gate)” value is “low polyreactivity”.

For the sequence “QVQLVESGGGLVQAGGSLRLSCAASGSIFTWYAMGWSRPAPGKERELVAAITRGGSTYADSVKGRFTISRDNAKNTVYLQMNSLKPEDSAVYYCNAVYGVYDFNYWGQGTQVTVSS”, the “polyreactivity (PSR sort gate)” value was “low polyreactivity”.

Turning to “QVQLVESGGGLVQAGGSLRLSCAASGYIFPTNAMGWYRQAPGKERELVAVITSGGSTYYADSVKGRFTISRDNAKNTVYLQMNSLKPEDNAVYYCAARYPGRYGIYRVLYGYWGQGTQVTVSS”, the “polyreactivity (PSR sort gate)” value is “high polyreactivity”.

For “QVQLVESGGGLVQAGGSLRLSCASSGSTFWVNVMGWYRQAPGKERELVATITSGGRTNYADSVKGRFTISRDNAKNTVYLQMNCLKPEDTAVYYCAADLKRGYLMDYWGQGTQVTVSS”, the “polyreactivity (PSR sort gate)” value is recorded as “low polyreactivity”.

For the sequence “QVLLVESGGGLVQAGGSLRLSCAASGRTFARNTMGWYRQAPGKERELVAGITSTGSTNYADSVKGRFTISRDNAKNTVYLQMNSLKPEDTAVYYCNARRYRPGSQYGYDYWGQGTQVTVSS”, the “polyreactivity (PSR sort gate)” value is given as “high polyreactivity”.

As to “QVQLVESGGGLVQAGGSLRLSCAASGRTFGYYAMGWYRPEHGTERELVAAITRTGGSTHYADSVKGRFTISRDNAKNTVYLQMNSLKPEDTAVYYCARDYRYTIPYDYWGQGTQVTVSS”, the “polyreactivity (PSR sort gate)” value is reported as “low polyreactivity”.

In the case of “PVQLVESGGGLVQAGGSLRLSCAASGIIFYRNAMAWYRQAPGKERELVAAITSSGGRTYYAYSVKGRFTISRDNAKNTVYLQMNRLKPEDTAVYYCAATRLYWKIFYGDGDYWGQGTQVTVSS”, the “polyreactivity (PSR sort gate)” value is recorded as “high polyreactivity”.

“QVQLVESGGGLVQAGGSLSLSCAASGRTFVYYAMGWYRQAPGKERELVAAISSSGGRTYYADSVKGRFTISRDNAKNTVYLQMNSLKPEDTAVYYCAARRLSPIYDSWGQGTQVTVSS”: the “polyreactivity (PSR sort gate)” value is listed as “high polyreactivity”.

On to “QVQLVESGGGKVQAGGSLRLSCAAYGIIFYPYDMGWNRQSPAKERELVAAISIGGGSTYYADSVKGRFTISRDNAKNTVYLQMNSLKPEDNAVYYCAAGTPYGILGYYYWGQGSQVTVSS”, for which the “polyreactivity (PSR sort gate)” value is on record as “low polyreactivity”.

With “QVQLVESGGGLVQAGGSLRLSCAASGNTFGFYAMGWYRQAPGKERELVAGITSGDSTYYADSVKGRFTISRDNEKNTVYLQMNSLKPVDTAVYYCNADFTDSYWSRYDYWGQGTQVTVSS”, the “polyreactivity (PSR sort gate)” value was “low polyreactivity”.

For “QVQLVESGGGLVQAGGSLRLSCAASGRTFLPYAMGWYRQAPGKERELVADINWGGGSTYYADSVKGRFTISRDNATNTVYLQMNSLKQEDTALYYCATDDGYQYWYYQWYYWGQGTQVTVSS”, the “polyreactivity (PSR sort gate)” value is on record as “low polyreactivity”.
